Test results taken from the supplement of paper PMC9112550, “Optimization of the antimicrobial peptide Bac7 by deep mutational scanning” (BMC Biology, 2022).

tested on: Escherichia coli TOP10; assay: shrunken log2 fold change of peptide-encoding DNA abundance (4.5 h post-induction vs induction); higher = less antimicrobial activity (less host growth inhibition); details: time post-induction: 4.5 h; library: site-saturation at positions 5, 18, 19, 20
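Note: peptides expressed intracellularly from a pBAD plasmid library in pooled LB shake-flask culture, induced with 0.3% L-arabinose, DNA abundance read by NGS, three biological replicates, DESeq2 with apeglm shrinkage.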

Row | Sequence | shrunken log2 fold change
1 | RRIRARPPRLPRPRPRPFWMPRP | 1.14
2 | RRIRARPPRLPRPRPRPFWRPRP | 0.36
3 | RRIRARPPRLPRPRPRPGANPRP | 0.589
4 | RRIRARPPRLPRPRPRPGARPRP | 0.59
5 | RRIRARPPRLPRPRPRPGAVPRP | 0.578
6 | RRIRARPPRLPRPRPRPGCRPRP | 0.609
7 | RRIRARPPRLPRPRPRPGCSPRP | 0.505
8 | RRIRARPPRLPRPRPRPGDFPRP | 0.383
9 | RRIRARPPRLPRPRPRPGDRPRP | -0.00146
10 | RRIRARPPRLPRPRPRPGGCPRP | 0.81
11 | RRIRARPPRLPRPRPRPGGDPRP | 0.604
12 | RRIRARPPRLPRPRPRPGGVPRP | 0.626
13 | RRIRARPPRLPRPRPRPGHRPRP | 0.033
14 | RRIRARPPRLPRPRPRPGIDPRP | 0.652
15 | RRIRARPPRLPRPRPRPGIMPRP | 0.113
16 | RRIRARPPRLPRPRPRPGKAPRP | 0.266
17 | RRIRARPPRLPRPRPRPGKMPRP | -0.0572
18 | RRIRARPPRLPRPRPRPGLNPRP | 0.196
19 | RRIRARPPRLPRPRPRPGLQPRP | 0.577
20 | RRIRARPPRLPRPRPRPGMCPRP | 0.494
21 | RRIRARPPRLPRPRPRPGMNPRP | -0.0966
22 | RRIRARPPRLPRPRPRPGPEPRP | 1.61

Row | Sequence | shrunken log2 fold change
23 | RRIRARPPRLPRPRPRPGPTPRP | 0.574
24 | RRIRARPPRLPRPRPRPGPVPRP | 0.611
25 | RRIRARPPRLPRPRPRPGQEPRP | 0.0636
26 | RRIRARPPRLPRPRPRPGQHPRP | -0.0452
27 | RRIRARPPRLPRPRPRPGRCPRP | 0.745
28 | RRIRARPPRLPRPRPRPGRNPRP | 0.419
29 | RRIRARPPRLPRPRPRPGRTPRP | 0.683
30 | RRIRARPPRLPRPRPRPGSHPRP | 0.101
31 | RRIRARPPRLPRPRPRPGTKPRP | 0.0261
32 | RRIRARPPRLPRPRPRPGTLPRP | 0.22
33 | RRIRARPPRLPRPRPRPGVDPRP | 0.664
34 | RRIRARPPRLPRPRPRPGWIPRP | 0.161
35 | RRIRARPPRLPRPRPRPGYVPRP | -0.0339
36 | RRIRARPPRLPRPRPRPHADPRP | 0.981
37 | RRIRARPPRLPRPRPRPHAMPRP | 0.177
38 | RRIRARPPRLPRPRPRPHAYPRP | 0.0225
39 | RRIRARPPRLPRPRPRPHEFPRP | 0.293
40 | RRIRARPPRLPRPRPRPHEMPRP | 0.588
41 | RRIRARPPRLPRPRPRPHEYPRP | -0.0609
42 | RRIRARPPRLPRPRPRPHFGPRP | 0.0349
43 | RRIRARPPRLPRPRPRPHFVPRP | 0.0302
44 | RRIRARPPRLPRPRPRPHGEPRP | -0.00651

Row | Sequence | shrunken log2 fold change
45 | RRIRARPPRLPRPRPRPHGHPRP | 0.125
46 | RRIRARPPRLPRPRPRPHHWPRP | 0.145
47 | RRIRARPPRLPRPRPRPHIWPRP | -0.187
48 | RRIRARPPRLPRPRPRPHKTPRP | 0.0429
49 | RRIRARPPRLPRPRPRPHLRPRP | 0.325
50 | RRIRARPPRLPRPRPRPHMGPRP | 0.0766
51 | RRIRARPPRLPRPRPRPHNAPRP | -0.0368
52 | RRIRARPPRLPRPRPRPHNLPRP | -0.201
53 | RRIRARPPRLPRPRPRPHPEPRP | 0.7
54 | RRIRARPPRLPRPRPRPHPMPRP | -0.026
55 | RRIRARPPRLPRPRPRPHPVPRP | 0.277
56 | RRIRARPPRLPRPRPRPHQCPRP | -0.0483
57 | RRIRARPPRLPRPRPRPHTEPRP | -0.0331
58 | RRIRARPPRLPRPRPRPHTRPRP | 0.0581
59 | RRIRARPPRLPRPRPRPHVHPRP | -0.192
60 | RRIRARPPRLPRPRPRPHVSPRP | 0.0459
61 | RRIRARPPRLPRPRPRPHVVPRP | -0.288
62 | RRIRARPPRLPRPRPRPHWWPRP | 0.5
63 | RRIRARPPRLPRPRPRPHYQPRP | -0.459
64 | RRIRARPPRLPRPRPRPHYTPRP | 0.203
65 | RRIRARPPRLPRPRPRPHYWPRP | -0.658
66 | RRIRARPPRLPRPRPRPIALPRP | 0.0719

Row | Sequence | shrunken log2 fold change
67 | RRIRARPPRLPRPRPRPIAQPRP | 0.459
68 | RRIRARPPRLPRPRPRPIARPRP | 1.01
69 | RRIRARPPRLPRPRPRPICTPRP | 0.197
70 | RRIRARPPRLPRPRPRPIDDPRP | 0.178
71 | RRIRARPPRLPRPRPRPIDVPRP | -0.641
72 | RRIRARPPRLPRPRPRPIGDPRP | 0.24
73 | RRIRARPPRLPRPRPRPIGSPRP | -0.0508
74 | RRIRARPPRLPRPRPRPIHFPRP | -0.169
75 | RRIRARPPRLPRPRPRPIHHPRP | -0.302
76 | RRIRARPPRLPRPRPRPIIVPRP | -0.226
77 | RRIRARPPRLPRPRPRPIIYPRP | -0.249
78 | RRIRARPPRLPRPRPRPIMMPRP | -0.245
79 | RRIRARPPRLPRPRPRPIPLPRP | 0.0456
80 | RRIRARPPRLPRPRPRPIQPPRP | -0.0587
81 | RRIRARPPRLPRPRPRPIRMPRP | 0.183
82 | RRIRARPPRLPRPRPRPIRYPRP | -0.263
83 | RRIRARPPRLPRPRPRPITNPRP | -0.54
84 | RRIRARPPRLPRPRPRPIVCPRP | 0.00943
85 | RRIRARPPRLPRPRPRPIVYPRP | -0.248
86 | RRIRARPPRLPRPRPRPIWEPRP | 0.473
87 | RRIRARPPRLPRPRPRPIWMPRP | -0.00518
88 | RRIRARPPRLPRPRPRPIWSPRP | 1.14

Row | Sequence | shrunken log2 fold change
89 | RRIRARPPRLPRPRPRPIYVPRP | -0.25
90 | RRIRARPPRLPRPRPRPKADPRP | 0.597
91 | RRIRARPPRLPRPRPRPKARPRP | 1.16
92 | RRIRARPPRLPRPRPRPKATPRP | 0.347
93 | RRIRARPPRLPRPRPRPKAVPRP | 0.706
94 | RRIRARPPRLPRPRPRPKCGPRP | 0.432
95 | RRIRARPPRLPRPRPRPKCRPRP | 0.237
96 | RRIRARPPRLPRPRPRPKEQPRP | -0.111
97 | RRIRARPPRLPRPRPRPKFIPRP | -0.135
98 | RRIRARPPRLPRPRPRPKGHPRP | 0.359
99 | RRIRARPPRLPRPRPRPKGTPRP | 0.233
100 | RRIRARPPRLPRPRPRPKKAPRP | 0.285
101 | RRIRARPPRLPRPRPRPKKDPRP | 0.468
102 | RRIRARPPRLPRPRPRPKKWPRP | 0.0405
103 | RRIRARPPRLPRPRPRPKLPPRP | 0.184
104 | RRIRARPPRLPRPRPRPKMGPRP | 0.297
105 | RRIRARPPRLPRPRPRPKNEPRP | 0.215
106 | RRIRARPPRLPRPRPRPKNGPRP | 0.246
107 | RRIRARPPRLPRPRPRPKNQPRP | 0.249
108 | RRIRARPPRLPRPRPRPKNWPRP | 0.465
109 | RRIRARPPRLPRPRPRPKPFPRP | 0.0753
